Laboratory results taken from PMC2291454, “Functional characterisation of the TSC1–TSC2 complex to assess multiple TSC2 variants identified in single families affected by tuberous sclerosis complex” (BMC Medical Genetics, 2008).

Target: T1, TSC1 (human, UniProt Q92574 1-1164)
T1 sequence (looked up): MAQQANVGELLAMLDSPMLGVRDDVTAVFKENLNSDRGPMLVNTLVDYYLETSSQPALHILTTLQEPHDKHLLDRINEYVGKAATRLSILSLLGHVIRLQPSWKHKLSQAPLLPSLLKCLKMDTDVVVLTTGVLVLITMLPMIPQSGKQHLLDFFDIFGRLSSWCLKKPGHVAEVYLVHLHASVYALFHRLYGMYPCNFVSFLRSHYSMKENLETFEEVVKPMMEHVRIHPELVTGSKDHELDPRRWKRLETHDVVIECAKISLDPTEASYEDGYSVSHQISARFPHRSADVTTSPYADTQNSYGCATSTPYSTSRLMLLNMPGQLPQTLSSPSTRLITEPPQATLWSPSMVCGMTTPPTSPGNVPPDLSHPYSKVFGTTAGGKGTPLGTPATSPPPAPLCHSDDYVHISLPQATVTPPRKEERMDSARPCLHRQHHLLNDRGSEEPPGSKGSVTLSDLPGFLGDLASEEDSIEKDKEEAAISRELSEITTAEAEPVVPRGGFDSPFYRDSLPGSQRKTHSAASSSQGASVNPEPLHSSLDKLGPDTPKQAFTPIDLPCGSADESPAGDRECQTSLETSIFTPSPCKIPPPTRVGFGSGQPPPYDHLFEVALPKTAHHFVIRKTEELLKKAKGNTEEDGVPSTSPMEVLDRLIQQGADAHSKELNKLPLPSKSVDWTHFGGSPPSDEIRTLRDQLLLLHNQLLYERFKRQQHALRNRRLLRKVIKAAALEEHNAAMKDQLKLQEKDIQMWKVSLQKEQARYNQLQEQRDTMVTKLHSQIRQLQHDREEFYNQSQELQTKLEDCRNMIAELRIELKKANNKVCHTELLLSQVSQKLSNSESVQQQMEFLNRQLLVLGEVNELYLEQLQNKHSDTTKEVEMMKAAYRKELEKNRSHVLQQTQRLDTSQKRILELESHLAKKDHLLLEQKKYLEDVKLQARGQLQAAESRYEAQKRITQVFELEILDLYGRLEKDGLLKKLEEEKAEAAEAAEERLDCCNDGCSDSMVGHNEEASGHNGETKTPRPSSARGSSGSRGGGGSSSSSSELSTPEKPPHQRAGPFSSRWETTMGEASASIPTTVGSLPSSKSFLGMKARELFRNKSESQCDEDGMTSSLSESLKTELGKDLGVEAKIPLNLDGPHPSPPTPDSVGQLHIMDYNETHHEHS
Assay: cell-based or functional assay

B1: wild-type TSC2 (natural protein)
chain: not shown
in vitro rheb GAP activity of the immunoprecipitated TSC1–TSC2 complex: rheb-bound GDP/GTP ratio after 90 minutes: 1.4

B2: TSC2 I820del variant (natural protein)
chain: not shown
in vitro rheb GAP activity of the immunoprecipitated TSC1–TSC2 variant complex: rheb-bound GDP/GTP ratio after 90 minutes: 0.9
